How the values were obtained:
[1] = target: T1, Sll0067 GST (Synechocystis sp. PCC 6803, UniProt Q55139); test: absorbance at […] nm, GSH conjugation, Michaelis-Menten fit; assay type: biochemical; conditions: 1 mM GSH; 30 mM Tris-HCl pH 8.0, 1 mM EDTA; 25°C; read-out: affinity (apparent Km)
T1 sequence (Q55139 1-184): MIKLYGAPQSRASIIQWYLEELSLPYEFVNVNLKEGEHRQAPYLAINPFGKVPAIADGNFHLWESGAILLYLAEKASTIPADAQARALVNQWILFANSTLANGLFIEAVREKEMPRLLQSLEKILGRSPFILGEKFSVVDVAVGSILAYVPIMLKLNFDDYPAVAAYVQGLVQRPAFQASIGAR

[2] = target: T1, Sll0067 GST; test: initial velocity of GSH-MG conjugation with added S-lactoylGSH; assay type: biochemical; conditions: activator; co-substrates GSH and MG
[3] = target: Sll0067 glutathione transferase (GST) of Synechocystis sp. strain PCC 6803, His-tagged recombinant protein (Synechocystis sp. strain PCC 6803); test: SEC-MALS; 300 ug of purified protein in 300 ul injected at 0.5 ml/min on an analytical Superdex 200 10/300 column, 30 mM Tris-HCl pH 8.0, 200 mM NaCl; miniDAWN TREOS detector and T-rEX refractometer
[4] = substrate: S=C=NCCc1ccccc1; test: purified protein; assay type: biochemical, Synechocystis sp. PCC 6803; conditions: 1 mM GSH, 100 mM phosphate pH 6.5, 25°C
[5] = substrate: S=C=NCc1ccccc1; test: purified protein; assay type: biochemical, Synechocystis sp. PCC 6803; conditions: 1 mM GSH, 100 mM phosphate pH 6.5, 25°C
[6] = substrate: CC(=O)C=O; test: two-substrate steady-state kinetics, remaining MG by DDP fluorescence; secondary plot, allosteric sigmoidal fit; assay type: biochemical, Synechocystis sp. PCC 6803; conditions: varied GSH, 100 mM potassium phosphate, 1 mM EDTA, pH 7.5, 30°C, Hill number 1.873 ± 0.261
Excerpt: two-substrate steady-state kinetics, remaining MG by DDP fluorescence; secondary plot, allosteric sigmoidal fit on Sll0067 GST

O=[N+]([O-])c1ccc(Cl)c([N+](=O)[O-])c1 [1-chloro-2,4-dinitrobenzene]
Km [1]: 3800 µM

C[C@@H](O)C(=O)SC[C@H](NC(=O)CC[C@H](N)C(=O)O)C(=O)NCC(=O)O [S-D-lactoylglutathione]
initial velocity of GSH-MG conjugation with added S-lactoylGSH [2]: All measured initial velocities of Sll0067 activity were increased by S-lactoylGSH

Sll0067 glutathione transferase (GST) of Synechocystis sp. strain PCC 6803, His-tagged recombinant protein (enzyme)
stoichiometry N [3]: 2

B1: Sll0067 GST (Synechocystis sp. PCC 6803 substr. Kazusa) (protein)
chain: T1 sequence (Q55139 1-184)
Km [4]: 31.4 µM
Km [5]: 82.0 µM
K0.5 [6]: 221.7 ± 26.3 µM

From PMC7407080, “Methylglyoxal Detoxification Revisited: Role of Glutathione Transferase in Model Cyanobacterium Synechocystis sp. Strain PCC 6803” (mBio, 2020)
